This note sets out measurements from patent publication US6030783, “Photo-potentiation of cisplatin chemotherapy” (Massachusetts Institute of Technology).

The subject of data set [1] is HMG1. Particulars: [Pt(en)Cl2]; photo-cross-linking efficiency about half that of cis-DDP probe.
The target of data set [2] is T1, HMG domain B (of HMG1) (UniProt P63159 P63159:86-165). Nature of the data set: EMSA; 10-40 equiv protein. The settings on record: tags: expressed from pHB1 in E. coli BL21(DE3); label: 5'-32P. For orientation: In EMSA bound probe runs differently from free probe, usually more slowly.
The target in data set [3] is T1, HMG domain B (of HMG1). Nature of the data set: EMSA; 10-40 equiv protein; about 50% shifted at 1 uM DNA with 1.5 equiv (Example 5); also photo-cross-links at 302 nm via Lys-6; 10 mM Tris pH 7.5, 10 mM MgCl2, 50 mM KCl. Particulars: tags: expressed from pHB1 in E. coli BL21(DE3); label: 5'-32P. Here is the method: Reaction mixtures (10 µL total volume) were prepared containing 10 mM Tris-HCl, pH 7.5, 4% (v/v) glycerol, 10 mM MgCl2, 50 mM KCl, 1 mM EDTA and 0.05% (v/v) Nonidet P-40. HMG domain B [expressed and purified from pHB1/*Escherichia coli* BL21 (DE3) (Chow et al. (1995) *Biochemistry* 33: 15124–30)] was added, and the solution was incubated for 30 min on ice to allow protein-DNA binding. For binding of the 123- and 82-bp probes to HMG1, 0.2 µg of BSA/mL, 2 µg of competitor chicken erythrocyte DNA, and 300 ng of HMG1 were included in the reaction mixtures. To induce photo-cross-linking of the protein—DNA complexes, the reaction mixtures contained in open microcentrifuge tubes were placed on ice and irradiated from about for 1–2 h at a distance of 4 cm from a transilluminator (Ultra-Violet Products, TM-15) equipped with one of several different lamps, with primary spectral outputs of 254, 302, or 365 nm. The light intensity, 2.6–2.9 J m^-2 s^-1, was measured with a UVX radiometer (Ultra-Violet Products). Following irradiation, the reaction mixtures were combined with 5 µL of gel-loading solution [10 M urea, 1.5 mM EDTA, 0.05% (w/v) bromophenol blue and xylene cyanol]. The DNA was denatured by heating at 90° C. for 4 min and then analyzed by denaturing PAGE. The denaturing 8% polyacrylamide gel was run to determine photo-crosslinking of HMG1 to globally platinated 123-bp probes. […]

T1 sequence (P63159 86-165, one chain of several): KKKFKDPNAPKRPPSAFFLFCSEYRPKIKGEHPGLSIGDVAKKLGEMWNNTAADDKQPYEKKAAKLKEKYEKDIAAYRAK

Regarding [Pt(en)Cl2]-modified DNA, the binding signal (fraction of cis-DDP probe) in data set [1] is 0.5.
Turning to CCTCTCTGGTTCTTC (ssDNA, single cis-[Pt(NH3)2{d(GpG)-N7(1),-N7(2)}] intrastrand cross-link at GG) [15Pt single strand], the binding result in data set [2] is on record as “no binding”.

B1: 15Pt/15B cisplatin-modified 15-bp duplex (dsDNA)
DNA 1: CCTCTCTGGTTCTTC
DNA 2: GAAGAACCAGAGAGG
modifications: single cis-[Pt(NH3)2{d(GpG)-N7(1),-N7(2)}] intrastrand cross-link at GG
For B1, the binding result in data set [3] is “binds”.
